Values quoted from earlier work, collected in publication PMC4070439.

Key:
[1] = molecular target: IL-12Rβ1 (low affinity site) (Mus musculus) (UniProt Q60837)
[2] = molecular target: IL-12Rβ1 (high affinity site) (Mus musculus) (UniProt Q60837)

Kd [1]: 15 nM | Kd [2]: 0.005 nM
Substance: IL-12 p40 homodimer (from UniProt P43432)
